B1: Nb1 (anti-BCMA nanobody 1 of the cilta-cel CAR) (VHH)
VHH: QVKLEESGGGLVQAGRSLRLSCAASEHTFSSHVMGWFRQAPGKERESVAVIGWRDISTSYADSVKGRFTISRDNAKKTLYLQMNSLKPEDTAVYYCAARRIDAADFDSWGQGTQVTVSS
notes: VHH from a phage display library of llamas immunized with BCMA; calculated Mw 13.9 kDa; source: provided by GenScript
B2: Nb2 (anti-BCMA nanobody 2 of the cilta-cel CAR) (VHH)
VHH: EVQLVESGGGLVQAGGSLRLSCAASGRTFTMGWFRQAPGKEREFVAAISLSPTLAYYAESVKGRFTISRDNAKNTVVLQMNSLKPEDTALYYCAADRKSVMSIRPDYWGQGTQVTVSS
notes: VHH from a phage display library of llamas immunized with BCMA; calculated Mw 13.6 kDa; source: provided by GenScript

How the values were obtained:
Settings in all cases: both partners purified
[1] = molecular target: T1, BCMAECD (synthesized extracellular domain of human B-cell maturation antigen, residues 1-54) (human, UniProt Q02223-1); test: SEC; nanobody-BCMAECD complexes (mixed 1:4, overnight at 4 °C, Superdex 75)
T1 construct: B-cell maturation antigen (BCMA), human, extracellular domain, residues 1-54 of UniProt Q02223-1; synthesized, without glycosylation; calculated Mw 5.9 kDa; also called BCMA extracellular domain; BCMA ectodomain; source: synthetic peptide (GL Biochem, Shanghai)

[2] = molecular target: T1, BCMAECD (synthesized extracellular …); test: AUC; sedimentation velocity; complexes formed by mixing nanobody with excess BCMAECD (molar ratio 1:4, overnight at 4 °C); 1 mg/ml, 45,000 rpm, 20 mM Tris pH 8.0, 100 mM NaCl, 4 °C
[3] = molecular target: T2, BCMAECD-Fc (dimerized, Fc-tagged human BCMA extracellular domain) (human, UniProt Q02223-1); test: SPR; Biacore 8K, 25 °C, 10 mM HEPES pH 7.4, 150 mM NaCl, 0.05% Tween 20; BCMAECD-Fc immobilised by amine coupling on CM5; nanobodies as analytes (five two-fold dilutions); Langmuir model for Nb1 and Nb2, heterogeneous ligand model for NbT
T2 construct: B-cell maturation antigen (BCMA), human, extracellular domain; also called Fc-tagged human BCMAECD

[4] = molecular target: T3, BCMAECD-His (monomeric, His-tagged human BCMA extracellular domain) (Homo sapiens, UniProt Q02223-1); test: SPR; Biacore 8K, 25 °C, 10 mM HEPES pH 7.4, 150 mM NaCl, 0.05% Tween 20; BCMAECD-His immobilised by amine coupling on CM5; nanobodies as analytes (five two-fold dilutions); Langmuir model for Nb1 and Nb2, heterogeneous ligand model for NbT
T3 construct: B-cell maturation antigen (BCMA), human, extracellular domain; also called His-tagged human BCMAECD
T3 sequence (Q02223 1-54): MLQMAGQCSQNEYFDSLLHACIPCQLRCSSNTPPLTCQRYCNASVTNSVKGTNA

T1 sequence (Q02223 1-54): as above
T2 sequence (Q02223 1-54): as above

Binder	stoichiometry N [1]	stoichiometry N [2]	Kd [3] [nM]	Kd [4] [nM]
B1	~1 Nb1 per BCMAECD (printed 2:2)	1 Nb1 per BCMAECD (printed 2:2)	0.67	3.9
B2	~1 Nb2 per BCMAECD (printed 1:1)	1 Nb2 per BCMAECD (printed 1:1)	3.7	4.2
